# Assay results from patent US11572394B2, “Peptides for targeting LRP6-overexpressed cells” (PASTEUR INSTITUTE OF IRAN, priority 2020, dated 2023).
# B1: DKK1: Dickkopf-related protein 1, natural inhibitor of the Wnt signaling pathway, antagonist ligand of LRP6, negative control (protein)
# chain: TLNSVLNSNAIKNLPPPLGGAAGHPGSAVSAAPGILYPGGNKYQTIDNYQPYPCAEDEECGTDEYCASPTRGGDAGVQICLACRKRRKRCMRHAMCCPGNYCKNGICVSSDQNHFRGEIEETITESFGNDHSTLDGYSRRTTLSSKMYHTKGQEGSVCLRSSDCASGLCCARHFWSKICKPVLKEGQVCTKHRRKGSHGLEIFQRCYCGEGLSCRIQKDHHQASNSSRLHTCQRH
# Experiments:
# Format in all cases: cell-based, human
# [1] = test system: Wnt signaling pathway, HCT116 cell line; assay: Western blotting of LRP6 and β-catenin proteins with signal densitometry; conditions: HCT116, Western blot
# Experimental: (§1) In this example, the effect of exemplary peptides on the expression of LRP6 and downstream genes of the Wnt signaling pathway, such as β-catenin, cyclin D1, and C-MYC, was evaluated at transcription level using real-time PCR and at translation level using Western blotting. The Gapdh gene was used as the reference gene. The expression fold change of more than 2 times (treated cell against untreated cell) was defined as increasing expression, and cases with a fold change of 0.5 to 2 were unchanged, and cases with expression fold change less than 0.5 were considered as a reduction in expression.
# (§2) Also, the effect of exemplary peptides on the levels of LRP6 and β-catenin proteins in the β-catenin/Wnt signaling pathway was investigated by Western blotting. Also, each protein's relative expression was determined through signal densitometry of each Western blot band.
# [2] = test system: Wnt signaling pathway, SW480 cell line; assay: as above; conditions: SW480, Western blot
# Experimental: as §1, §2
# [3] = test system: Wnt signaling pathway, HUVEC cell line; assay: as above; conditions: Western blot
# Experimental: as §1
# Also, the effect of exemplary peptides on the levels of LRP6 and β-catenin proteins in the β-catenin/Wnt signaling pathway was investigated by Western blotting. Also, each protein's relative expression was determined through signal densitometry of each Western blot band. FIG. 11A illustrates relative expression β-actin, β-catenin, and LRP6 in SW480, HCT116, and HUVEC cell lines, consistent with one or more exemplary embodiments of the present disclosure. Referring to FIG. 11A, the relative expressions of β-catenin and LRP6 in SW480 and HCT116 were higher than HUVEC as a normal cell.
# HUVEC = assay: Cell cycle analysis by flow cytometry (DNA content); conditions: 24 hours
# Experimental: (§3) In this example, the effect of exemplary peptides on the cell cycle was determined through flow cytometry and measurement of DNA content in cells. In this experiment, HCT116, SW480, and HUVEC cell lines were cultured in 24-well plates and treated with 1 mM of each exemplary peptide for 24 hours.
# (§4) The cell proliferation index may be calculated by dividing the percentage of cells present in the S and G2 stages by the percentage of cells in the G1, S, and G2 stages. […] Also, the proliferation index in SW480 and HCT116 cell lines decreased after treatment with exemplary peptides (SEQ ID NOs: 1-4). On the other hand, the decrease in the proliferation index of HUVEC cells was smaller than that of SW480 and HCT116 cell lines.
# SW480 = assay: as above; conditions: SW480, 24 hours
# Experimental: as §3, §4
# HCT116 = assay: as above; conditions: HCT116, 24 hours
# Experimental: as §3, §4
molecule,measurement,setting,value
B1,level of LRP6 protein,[1],did not alter
same,level of LRP6 protein,[2],did not alter
same,level of LRP6 protein,[3],did not alter
same,S and G2/M stage percentage,HUVEC,decreased
same,percentage of cells in the G0/G1 stage,HUVEC,increased
same,S and G2/M stage percentage,SW480,decreased
same,percentage of cells in the G0/G1 stage,SW480,increased
same,S and G2/M stage percentage,HCT116,decreased
same,percentage of cells in the G0/G1 stage,HCT116,increased
